Target: the molecule itself
Assay: SEC

B1: M. tuberculosis Rv1496 (natural protein)
chain: MMAASHDDDTVDGLATAVRGGDRAALPRAITLVESTRPDHREQAQQLLLRLLPDSGNAHRVGITGVPGVGKSTAIEALGMHLIERGHRVAVLAVDPSSTRTGGSILGDKTRMARLAVHPNAYIRPSPTSGTLGGVTRATRETVVLLEAAGFDVILIETVGVGQSEVAVANMVDTFVLLTLARTGDQLQGIKKGVLELADIVVVNKADGEHHKEARLAARELSAAIRLIYPREALWRPPVLTMSAVEGRGLAELWDTVERHRQVLTGAGEFDARRRDQQVDWTWQLVRDAVLDRVWSNPTVRKVRSELERRVRAGELTPALAAQQILEIANLTDR
For B1, the “stoichiometry N” value was 2.

From PMC4631608 (Journal of structural and functional genomics, 2015)
